Measurements from publication PMC11077971 (mBio, 2024).

B1: His6-BC1ΔBCCP (Met1-Glu452) (domain or fragment, Chloroflexus aurantiacus J-10-fl, UniProt A9W9X0 1-452, looked up)
chain: MFRTILVANRGEIALRVMRACRELGLRCVAVYSEADRDAPHVAYADDAFLIGPPSPAESYLNIDAIIRAAKATGAEAIHPGYGFLAENASFVRAVTAAGLIFIGPPAEAMERMGGKTAARREATAAGVPVVPGVLEPVTDAAEVRRLGKEFGYPIAIKAVGGGGGRGLRVVRSPEEVDEAFAAARREAEVAFKNGELYVEKYLDDPRHIEIQVLADRYGNAVALGERDCSVQRRHQKLIEECPSPALTPELRAEMGAAAVRLAKAVGYVSAGTLEFLFQDGRYYFLEMNTRIQVEHTVTEMVYGIDLVAAQIRIAQGEKLWFKQEDVVPRGHAIECRINAEDPLHNFRPALGTIGEYHEPVGFGVRVDSGVRAYYTVPSHYDSLLAKLITWGSDRQEAIARMRRALAEYRIEGVTTIIPFHQAALEHPVFTAGAATVNFIPRHPELFSRAAE
notes: BC domain of biotin carboxylase isoform BC1, Chloroflexus aurantiacus J-10-fl; also called BCCP-truncated BC1 mutant; not shown: His6, N-terminal, kept
B2: BC1ΔBCCP^β-hairpin (BC1 lacking Thr473-Gly486) (enzyme, Chloroflexus aurantiacus J-10-fl, UniProt A9W9X0 1-596, looked up)
chain: MFRTILVANRGEIALRVMRACRELGLRCVAVYSEADRDAPHVAYADDAFLIGPPSPAESYLNIDAIIRAAKATGAEAIHPGYGFLAENASFVRAVTAAGLIFIGPPAEAMERMGGKTAARREATAAGVPVVPGVLEPVTDAAEVRRLGKEFGYPIAIKAVGGGGGRGLRVVRSPEEVDEAFAAARREAEVAFKNGELYVEKYLDDPRHIEIQVLADRYGNAVALGERDCSVQRRHQKLIEECPSPALTPELRAEMGAAAVRLAKAVGYVSAGTLEFLFQDGRYYFLEMNTRIQVEHTVTEMVYGIDLVAAQIRIAQGEKLWFKQEDVVPRGHAIECRINAEDPLHNFRPALGTIGEYHEPVGFGVRVDSGVRAYYTVPSHYDSLLAKLITWGSDRQEAIARMRRALAEYRIEGVTTIIPFHQAALEHPVFTAGAATVNFIPRHPELFSRAAELTPPTAASAGAEPAPEPRRFGDGMNATPVASPSRSAPARRAAPKKTTLAAPVDAVISPIQGRVVAVRVAHGQQVEAGQVLFIVEAMKMENEITAPHSGTIAEVRVEVGTTVEAGAMLATYQNTANNTNGK
notes: biotin carboxylase isoform BC1, Chloroflexus aurantiacus J-10-fl, with the β-hairpin motif Thr473-Gly486 deleted; Vector pET28a-bc1Δbccp^β-hairpin; source: E. coli BL21(DE3), purified
B3: BC1 (Chloroflexus aurantiacus J-10-fl) (protein)
chain: MFRTILVANRGEIALRVMRACRELGLRCVAVYSEADRDAPHVAYADDAFLIGPPSPAESYLNIDAIIRAAKATGAEAIHPGYGFLAENASFVRAVTAAGLIFIGPPAEAMERMGGKTAARREATAAGVPVVPGVLEPVTDAAEVRRLGKEFGYPIAIKAVGGGGGRGLRVVRSPEEVDEAFAAARREAEVAFKNGELYVEKYLDDPRHIEIQVLADRYGNAVALGERDCSVQRRHQKLIEECPSPALTPELRAEMGAAAVRLAKAVGYVSAGTLEFLFQDGRYYFLEMNTRIQVEHTVTEMVYGIDLVAAQIRIAQGEKLWFKQEDVVPRGHAIECRINAEDPLHNFRPALGTIGEYHEPVGFGVRVDSGVRAYYTVPSHYDSLLAKLITWGSDRQEAIARMRRALAEYRIEGVTTIIPFHQAALEHPVFTAGAATVNFIPRHPELFSRAAELTPPTAASAGAEPAPEPRRFTIEVNGRRFGVAVFGDGMNATPVASPSRSAPARRAAPKKTTLAAPVDAVISPIQGRVVAVRVAHGQQVEAGQVLFIVEAMKMENEITAPHSGTIAEVRVEVGTTVEAGAMLATYQNTANNTNGK
B4: Chloroflexus aurantiacus BC1 (His6-tagged, Met1-Lys596), not biotinylated in vitro (enzyme, Chloroflexus aurantiacus J-10-fl, UniProt A9W9X0 1-596, looked up)
chain: MFRTILVANRGEIALRVMRACRELGLRCVAVYSEADRDAPHVAYADDAFLIGPPSPAESYLNIDAIIRAAKATGAEAIHPGYGFLAENASFVRAVTAAGLIFIGPPAEAMERMGGKTAARREATAAGVPVVPGVLEPVTDAAEVRRLGKEFGYPIAIKAVGGGGGRGLRVVRSPEEVDEAFAAARREAEVAFKNGELYVEKYLDDPRHIEIQVLADRYGNAVALGERDCSVQRRHQKLIEECPSPALTPELRAEMGAAAVRLAKAVGYVSAGTLEFLFQDGRYYFLEMNTRIQVEHTVTEMVYGIDLVAAQIRIAQGEKLWFKQEDVVPRGHAIECRINAEDPLHNFRPALGTIGEYHEPVGFGVRVDSGVRAYYTVPSHYDSLLAKLITWGSDRQEAIARMRRALAEYRIEGVTTIIPFHQAALEHPVFTAGAATVNFIPRHPELFSRAAELTPPTAASAGAEPAPEPRRFTIEVNGRRFGVAVFGDGMNATPVASPSRSAPARRAAPKKTTLAAPVDAVISPIQGRVVAVRVAHGQQVEAGQVLFIVEAMKMENEITAPHSGTIAEVRVEVGTTVEAGAMLATYQNTANNTNGK
notes: biotin carboxylase isoform BC1 with fused BC (Met1-Glu452) and BCCP (Ala459-Lys596) domains, Chloroflexus aurantiacus J-10-fl, 596 residues; the pull-down control was; also called His6-BC1; unbiotinylated BC1; source: for the pull-down passed over streptavidin agarose to remove the biotinylated fraction; not shown: His6, N-terminal, kept
B5: Chloroflexus aurantiacus BC2 (His6-tagged, Met1-Val455) (enzyme, Chloroflexus aurantiacus J-10-fl, UniProt A9WKH8 1-455, looked up)
chain: MIRKVLVANRGEIAVRIIRACQELGIRTVVAYSTADRDSLAVRLADEAVCIGPPPAAKSYLNAPALISAALVSGCDAIHPGYGFLSENPYFAEMCADCKLTFIGPPPEPIRLMGDKAIGRETMRKAGVPTVPGSDGEVRSLEEAIDVARQIGYPVLLKPSGGGGGRGMRVAYDEADLQRAFPTARAEAEAAFGNGALLLEKYLTRVRHVEIQVLADQYGHAIHLGERDCSAQRRHQKIVEEAPSPAVTPELRERMGADAVRGIKSIGYVNAGTLEFLLDQDGNYYFIEMNTRIQVEHPVTEQVTGIDLVRWQLLIASGERLTLRQEDIKITRHAIECRINAEDPERDFLPASGEVEFYLPPGGPGVRVDSHLYSGYTPPGTYDSLLAKIITFGDTRDEALNRMRRALNECVITGIKTTIPFQLALIDDPEFRAGRIHTGYVAELLRQWKETLNPV
notes: biotin carboxylase isoform BC2, Chloroflexus aurantiacus J-10-fl, 455 residues; Met1-Val455 is called full-length; also called His6-BC2; biotin carboxylase isoform 2; not shown: His6, N-terminal, kept
B6: His6-BC1ΔBCCP^Core (Met1-Lys510) (domain or fragment, Chloroflexus aurantiacus J-10-fl, UniProt A9W9X0 1-510, looked up)
chain: MFRTILVANRGEIALRVMRACRELGLRCVAVYSEADRDAPHVAYADDAFLIGPPSPAESYLNIDAIIRAAKATGAEAIHPGYGFLAENASFVRAVTAAGLIFIGPPAEAMERMGGKTAARREATAAGVPVVPGVLEPVTDAAEVRRLGKEFGYPIAIKAVGGGGGRGLRVVRSPEEVDEAFAAARREAEVAFKNGELYVEKYLDDPRHIEIQVLADRYGNAVALGERDCSVQRRHQKLIEECPSPALTPELRAEMGAAAVRLAKAVGYVSAGTLEFLFQDGRYYFLEMNTRIQVEHTVTEMVYGIDLVAAQIRIAQGEKLWFKQEDVVPRGHAIECRINAEDPLHNFRPALGTIGEYHEPVGFGVRVDSGVRAYYTVPSHYDSLLAKLITWGSDRQEAIARMRRALAEYRIEGVTTIIPFHQAALEHPVFTAGAATVNFIPRHPELFSRAAELTPPTAASAGAEPAPEPRRFTIEVNGRRFGVAVFGDGMNATPVASPSRSAPARRAAPK
notes: biotin carboxylase isoform BC1 without the BCCP core, Chloroflexus aurantiacus J-10-fl; The cloning of this construct is not described in the methods; source: E. coli BL21(DE3), purified

How the values were obtained:
E. coli BirA = target: T1, E. coli BirA (Escherichia coli, UniProt P06709); test: HPLC-MS of biotinylated BCCP core; assay type: biochemical; conditions: apo-BCCP core (BC1) as acceptor protein, 10 µM biotin, 0.3 mM ATP, 5 mM MgCl2, pH 8.0, 37 °C
T1 construct: Met1-Lys321, N-terminal His6 tag (pET28a), E. coli BL21(DE3)

[1] = target: T2, ACC complex (biotinylated BC1 with CTβ-CTα) (Chloroflexus aurantiacus, UniProt A9WBQ8+A9WBQ9); test: HPLC and MS detection of malonyl-CoA; assay type: biochemical; conditions: 10 mM acetyl-CoA, 40 mM bicarbonate, 1 mM ATP, 5 mM MgCl2, pH 9.0, RT
T2 construct: gene accD; His6-tagged, E. coli BL21(DE3); with Biotin carboxylase (acetyl-CoA carboxylase, biotin carboxylase; fused BC-BCCP)

purified protein [2] = substrate: O=C(O)O; test: purified protein; conditions: apparent Km, 40 mM biotin, 2 mM ATP, 8 mM MgCl2, 100 mM Hepes pH 8.0, 25 °C
purified protein [3] = substrate: O=C(O)CCCC[C@@H]1SC[C@@H]2NC(=O)N[C@@H]21; test: purified protein; conditions: apparent Km, free biotin as carboxyl acceptor, 40 mM bicarbonate, 2 mM ATP, 8 mM MgCl2, 100 mM Hepes pH 8.0, 25 °C
[4] = target: the molecule itself; test: AUC + SEC; sedimentation velocity, 42,000 rpm, 20°C, initial A280 ~0.7, Sedfit; gel filtration on a Superdex 200 column
[5] = target: the molecule itself; test: crystal structure; hanging-drop vapor diffusion at 16°C; BC1 at 6.5 mg/mL, BC2 at 10 mg/mL in 20 mM Tris-HCl pH 8.0, 150 mM NaCl, 2 mM MgCl2; molecular replacement

T1 sequence (P06709 whole entry): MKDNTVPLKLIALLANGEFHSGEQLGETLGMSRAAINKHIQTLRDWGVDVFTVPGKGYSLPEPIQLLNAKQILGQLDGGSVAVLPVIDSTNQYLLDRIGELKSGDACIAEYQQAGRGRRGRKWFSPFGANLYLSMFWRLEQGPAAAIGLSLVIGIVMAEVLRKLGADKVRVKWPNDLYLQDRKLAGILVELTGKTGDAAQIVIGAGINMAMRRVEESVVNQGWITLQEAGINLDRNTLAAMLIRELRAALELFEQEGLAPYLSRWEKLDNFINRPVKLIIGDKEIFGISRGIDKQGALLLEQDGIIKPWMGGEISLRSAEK
T2 sequence (A9WBQ8 entry or part of it, one chain of several): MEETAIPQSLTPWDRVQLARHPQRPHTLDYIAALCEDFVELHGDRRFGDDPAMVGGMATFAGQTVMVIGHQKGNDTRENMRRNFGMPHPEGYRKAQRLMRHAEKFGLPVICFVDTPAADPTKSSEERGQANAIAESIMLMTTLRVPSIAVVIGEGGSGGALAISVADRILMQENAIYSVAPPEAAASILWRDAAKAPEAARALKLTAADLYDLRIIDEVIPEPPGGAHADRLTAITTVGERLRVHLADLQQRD
T2 sequence (A9WBQ9 24-305, one chain of several): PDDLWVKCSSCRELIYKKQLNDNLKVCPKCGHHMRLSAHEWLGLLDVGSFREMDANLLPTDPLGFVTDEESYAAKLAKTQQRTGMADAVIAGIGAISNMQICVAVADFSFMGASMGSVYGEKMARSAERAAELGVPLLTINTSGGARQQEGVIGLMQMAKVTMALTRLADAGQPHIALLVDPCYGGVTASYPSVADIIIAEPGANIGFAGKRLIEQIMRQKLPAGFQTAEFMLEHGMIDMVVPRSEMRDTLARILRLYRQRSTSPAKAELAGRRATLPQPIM

Molecule	Km (purified protein [2])	kcat (purified protein [2])	kcat/Km (purified protein [2])	Km (purified protein [3])	kcat (purified protein [3])	kcat/Km (purified protein [3])	stoichiometry N [4]	other results
O=C(O)CCCC[C@@H]1SC[C@@H]2NC(=O)N[C@@H]21 [biotin]	–	–	–	–	–	–	–	HPLC-MS of biotinylated BCCP core (E. coli BirA): BC1-BCCP domain can be biotinylated by both E. coli and C. aurantiacus BirA
CC(=O)SCCNC(=O)CCNC(=O)[C@H](O)C(C)(C)COP(=O)(O)OP(=O)(O)OC[C@H]1O[C@@H](n2cnc3c(N)ncnc32)[C@H](O)[C@@H]1OP(=O)(O)O [acetyl-CoA]	–	–	–	–	–	–	–	HPLC and MS detection of malonyl-CoA [1]: the reconstituted ACC complex is enzymatically active
B1	7.4 ± 0.3 mM	14.3 s⁻¹	1930 M⁻¹ s⁻¹	17.1 ± 1.2 mM	15.6 s⁻¹	920 M⁻¹ s⁻¹	2	–
B2	–	–	–	–	–	–	2	–
B3	4.5 ± 0.1 mM	20.7 s⁻¹	4560 M⁻¹ s⁻¹	11.4 ± 0.2 mM	19.1 s⁻¹	1670 M⁻¹ s⁻¹	–	–
B4	–	–	–	–	–	–	–	stoichiometry N [5]: 4
B5	6.7 ± 0.9 mM	16.2 s⁻¹	2380 M⁻¹ s⁻¹	14.8 ± 2.2 mM	16.7 s⁻¹	1160 M⁻¹ s⁻¹	–	stoichiometry N [5]: 2
B6	–	–	–	–	–	–	4	–
